The assay concerns the target stimulatory G-protein, Gs.

Results on one substance are retold here after patent publication US20060292565A1.

As for Gly-389 beta-1 adrenergic receptor, the [35S]GTPγS binding in the presence of 10 µM isoproterenol stood at 770000 dpm/mg.
